Source: patent US7745151B2, “Methods of determining binding between Nogo receptor and p75 neurotrophin receptor” (Children's Medical Center Corporation, priority 2002, dated 2010)

What was measured:
DRG neurons = assay: Neurite outgrowth assay, wild type versus P75 mutant neurons; type: cell-based, mice
Source text: We use a neurite outgrowth assay to compare the responses of neurons from wild type mice and those carrying a mutation in the P75 gene to individual inhibitors (Lee et al., Cell 1992 May 29; 69(5):737-49). Neurite outgrowth of DRG neurons from P75 (−/−) was not inhibited by MAG-Fc.

[1] = molecular target: T1, CHO cells expressing full-length NgR (Homo sapiens, UniProt Q9BZR6); assay: Cell surface binding assay of AP-p75
T1 construct: expressed in transfected cells; host or cells: CHO cells
T1 sequence (Q9BZR6 27-473): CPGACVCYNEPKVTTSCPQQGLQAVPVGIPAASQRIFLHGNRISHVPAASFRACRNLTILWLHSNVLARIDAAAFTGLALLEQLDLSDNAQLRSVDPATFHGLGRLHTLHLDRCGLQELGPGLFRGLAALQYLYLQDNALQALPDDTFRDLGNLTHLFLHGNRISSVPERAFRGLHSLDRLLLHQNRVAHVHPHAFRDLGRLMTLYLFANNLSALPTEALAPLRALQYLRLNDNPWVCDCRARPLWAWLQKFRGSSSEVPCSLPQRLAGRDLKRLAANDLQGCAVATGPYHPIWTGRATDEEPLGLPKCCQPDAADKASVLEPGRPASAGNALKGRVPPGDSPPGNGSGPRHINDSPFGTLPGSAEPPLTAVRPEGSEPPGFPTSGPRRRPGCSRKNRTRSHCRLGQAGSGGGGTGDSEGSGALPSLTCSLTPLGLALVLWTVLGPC
Source text: When we overexpress HA-tagged P75 and FLAG-tagged NgR into CHO cells, we find that p75 can be co-immunoprecipitated with NgR, but not with a control transmembrane protein Plexin A3. We also utilize a cell surface binding assay to better visualize the NgR/P75 interaction.
Upon expression in cerebellar granule neurons (CGNs), this truncated NgR, but not full-length NgR, blocks the inhibitory responses elicited by immobilized inhibitors.
Exemplary experimental protocols: Binding experiments: Sequence encoding the extracellular domain of rat p75 was subcloned into the expression vector AP-5 to express an AP-p75 fusion protein tagged with both a polyhistidine and a myc epitope. The resultant plasmid DNA was transfected into COS-7 cells and the secreted protein purified using nickel-Agarose resins (Qiagen). Cell surface binding with AP-p75 and other AP proteins were performed as described previously. For visualization of bound proteins, NBT and BCIP were used as AP substrates.

B1: OM-his: myelin inhibitor protein; his-tagged OMgp (protein, UniProt P23515 25-417, looked up)
Oligodendrocyte-myelin …: ICPLQCICTERHRHVDCSGRNLSTLPSGLQENIIHLNLSYNHFTDLHNQLTQYTNLRTLDISNNRLESLPAHLPRSLWNMSAANNNIKLLDKSDTAYQWNLKYLDVSKNMLEKVVLIKNTLRSLEVLNLSSNKLWTVPTNMPSKLHIVDLSNNSLTQILPGTLINLTNLTHLYLHNNKFTFIPDQSFDQLFQLQEITLYNNRWSCDHKQNITYLLKWMMETKAHVIGTPCSTQISSLKEHNMYPTPSGFTSSLFTVSGMQTVDTINSLSVVTQPKVTKIPKQYRTKETTFGATLSKDTTFTSTDKAFVPYPEDTSTETINSHEAAAATLTIHLQDGMVTNTSLTSSTKSSPTPMTLSITSGMPNNFSEMPQQSTTLNLWREETTTNVKTPLPS
modifications: His tag
notes: his-tagged OMgp
neurite outgrowth inhibition (DRG neurons; neurons from P75 (-/-) mice): neither of these proteins restrict neurite outgrowth | neurite outgrowth inhibition (DRG neurons; wild type neurons): efficiently inhibited

B2: AP-p75: alkaline phosphatase (AP) fusion protein containing the extracellular domain of P75 (protein)
chain: KETCSTGLYTHSGECCKACNLGEGVAQPCGANQTVCEPCLDNVTFSDVVSATEPCKPCTECLGLQSMSAPCVEADDAVCRCAYGYYQDEETGHCEACSVCEVGSGLVFSCQDKQNTVCEECPEGTYSDEANHVDPCLPCTVCEDTERQLRECTPWADAECEEIPGRWIPRSTPPEGSDSTAPSTQEPEVPPEQDLVPSTVADMVTTVMGSSQPVVTRGTTDNLI
modifications: left off: large carriers; small tags and cut ends
binding of AP-p75 to NgR-expressing cells [1]: able to bind CHO cells expressing full-length NgR specifically
